Experiments:
Details in all cases: both partners purified
[1] = molecular target: T1, AnkB_MBD (AnkB ANK repeats only, aa 28–827) (human, UniProt Q01484-2 28-827); assay: fluorescence polarisation; PerkinElmer LS-55 fluorimeter with automated polarizer, 25 °C; one-site binding model
T1 construct: ankyrin-B (AnkB), human 220 kDa isoform, residues 28-827: the 24 ANK repeats (MBD), no linker; numbers count on: human 220 kDa AnkB NM_020977.3; Poor quality in 100 mM NaCl buffer; also called AnkB 28–827; source: E. coli BL21 (DE3), purified (Ni2+-NTA, size exclusion)
T1 sequence (looked up): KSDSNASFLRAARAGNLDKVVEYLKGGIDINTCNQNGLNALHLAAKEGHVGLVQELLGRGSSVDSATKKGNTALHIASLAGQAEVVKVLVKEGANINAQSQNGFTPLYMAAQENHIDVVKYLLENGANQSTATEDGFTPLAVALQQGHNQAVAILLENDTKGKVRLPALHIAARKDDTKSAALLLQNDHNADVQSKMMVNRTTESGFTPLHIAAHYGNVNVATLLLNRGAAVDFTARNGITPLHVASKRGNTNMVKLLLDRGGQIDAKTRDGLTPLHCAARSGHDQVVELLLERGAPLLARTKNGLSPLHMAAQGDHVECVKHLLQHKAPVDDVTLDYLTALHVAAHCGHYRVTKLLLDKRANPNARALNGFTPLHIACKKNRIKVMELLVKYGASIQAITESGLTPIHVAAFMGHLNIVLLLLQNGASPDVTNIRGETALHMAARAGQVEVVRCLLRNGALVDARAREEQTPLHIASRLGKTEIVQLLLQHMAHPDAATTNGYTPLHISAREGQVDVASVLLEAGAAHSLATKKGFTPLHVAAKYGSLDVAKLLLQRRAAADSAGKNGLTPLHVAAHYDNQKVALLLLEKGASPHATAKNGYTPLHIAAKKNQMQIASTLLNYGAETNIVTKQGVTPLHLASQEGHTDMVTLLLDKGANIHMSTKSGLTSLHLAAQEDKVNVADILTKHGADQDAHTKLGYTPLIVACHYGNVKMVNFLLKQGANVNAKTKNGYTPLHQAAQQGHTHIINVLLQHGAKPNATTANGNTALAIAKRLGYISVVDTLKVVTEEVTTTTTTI

[2] = molecular target: T2, AnkB 28–847 (MBD + partial AI-c) (human, UniProt Q01484-2 28-847); assay: ITC; VP-ITC MicroCal, 25 °C; proteins in 50 mM Tris-HCl pH 7.8, 1 mM DTT, 1 mM EDTA with 100 mM or 500 mM NaCl as required; who was titrated is not told
T2 construct: ankyrin-B (AnkB), human 220 kDa isoform, residues 28-847: MBD and a short 20-residue linker; numbers count on: human 220 kDa AnkB NM_020977.3; also called extended MBD with a short 20-residue linker; source: E. coli BL21 (DE3), purified (Ni2+-NTA, size exclusion)
T2 sequence (looked up): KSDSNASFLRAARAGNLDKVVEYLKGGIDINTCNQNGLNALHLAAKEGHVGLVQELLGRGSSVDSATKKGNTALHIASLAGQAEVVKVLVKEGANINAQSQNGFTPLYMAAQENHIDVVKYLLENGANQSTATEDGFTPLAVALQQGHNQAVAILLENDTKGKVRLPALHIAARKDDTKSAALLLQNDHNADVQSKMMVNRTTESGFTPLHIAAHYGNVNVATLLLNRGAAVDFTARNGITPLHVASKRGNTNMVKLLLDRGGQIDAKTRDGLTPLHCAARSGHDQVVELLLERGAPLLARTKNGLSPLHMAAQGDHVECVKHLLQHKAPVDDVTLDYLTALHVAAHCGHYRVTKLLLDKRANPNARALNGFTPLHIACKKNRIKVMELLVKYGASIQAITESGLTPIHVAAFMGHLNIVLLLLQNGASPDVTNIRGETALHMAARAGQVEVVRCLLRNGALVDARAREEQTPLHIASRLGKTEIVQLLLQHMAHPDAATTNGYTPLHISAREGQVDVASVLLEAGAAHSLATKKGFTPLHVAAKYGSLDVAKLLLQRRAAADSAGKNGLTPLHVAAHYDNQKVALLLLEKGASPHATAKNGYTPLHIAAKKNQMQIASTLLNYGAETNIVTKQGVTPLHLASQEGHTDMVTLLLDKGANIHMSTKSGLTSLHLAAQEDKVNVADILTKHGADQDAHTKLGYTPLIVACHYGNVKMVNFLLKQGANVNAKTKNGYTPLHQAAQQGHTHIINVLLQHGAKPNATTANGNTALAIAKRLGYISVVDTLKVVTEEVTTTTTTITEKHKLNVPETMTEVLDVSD

[3] = molecular target: T1, AnkB_MBD (AnkB ANK repeats only, aa …); assay: ITC; VP-ITC MicroCal, 25 °C; buffer containing 500 mM NaCl, due to poor quality of AnkB 28-827 in 100 mM NaCl buffer
[4] = molecular target: T3, AnkB_R13-24 (C-terminal 12 ANK repeats of AnkB) (human, UniProt Q01484-2 430-827); assay: crystal structure; one natural chain AnkB 430-873; the linker folds back on the repeats of the same chain; crystals grown at 16 °C
T3 construct: numbers count on: human 220 kDa AnkB NM_020977.3; also called AnkB C-terminal 12 repeats; source: E. coli BL21 (DE3), purified (Ni2+-NTA, size exclusion)
T3 sequence (looked up): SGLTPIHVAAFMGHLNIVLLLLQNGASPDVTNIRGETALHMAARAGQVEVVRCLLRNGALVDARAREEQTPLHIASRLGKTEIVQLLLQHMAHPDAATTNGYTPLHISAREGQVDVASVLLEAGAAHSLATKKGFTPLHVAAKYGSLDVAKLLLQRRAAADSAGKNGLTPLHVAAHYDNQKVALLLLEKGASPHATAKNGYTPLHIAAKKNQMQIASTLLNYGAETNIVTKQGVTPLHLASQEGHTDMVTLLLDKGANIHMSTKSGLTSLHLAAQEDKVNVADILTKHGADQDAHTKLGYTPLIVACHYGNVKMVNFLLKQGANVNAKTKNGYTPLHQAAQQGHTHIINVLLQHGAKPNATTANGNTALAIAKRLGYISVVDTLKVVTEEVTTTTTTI

[5] = molecular target: T1, AnkB_MBD (AnkB ANK repeats only, aa …); assay: ITC; VP-ITC MicroCal, 25 °C; proteins in 50 mM Tris-HCl pH 7.8, 1 mM DTT, 1 mM EDTA with 100 mM or 500 mM NaCl as required; who was titrated is not told

B1: AnkB_AI-a peptide (aa 1623–1635) (peptide, UniProt Q01484-2 1623-1635, looked up)
peptide: HPPIVSEEDISVG
notes: ankyrin-B (AnkB), human 220 kDa isoform, 13-residue AI-a segment of the C-terminal tail, residues 1623-1635; numbers count on: human 220 kDa AnkB NM_020977.3; The text says a peptide encompassing the AI-a segment, so it may be longer than 1623-1635; The fluorescent label of the polarisation assay is not described here (protocol of Wang et al., 2014)
[1]
  Kd: ~7.3 µM

B2: AnkB entire linker (aa 828–965) (domain or fragment, human, UniProt Q01484-2 828-965, looked up)
chain: TEKHKLNVPETMTEVLDVSDEEGDDTMTGDGGEYLRPEDLKELGDDSLPSSQFLDGMNYLRYSLEGGRSDSLRSFSSDRSHTLSHASYLRDSAVMDDSVVIPSHQVSTLAKEAERNSYRLSWGTENLDNVALSSSPIH
notes: numbers count on: human 220 kDa AnkB NM_020977.3; also called Linker (contains AI-c + AI-b); AnkB linker region; source: E. coli BL21 (DE3), purified (Ni2+-NTA, size exclusion)
[2]
  Kd: ~4.2 µM
[3]
  Kd: ~0.044 µM

B3: AnkB_AI-b (aa 865–896) (domain or fragment, human, UniProt Q01484-2 865-896, looked up)
chain: EDLKELGDDSLPSSQFLDGMNYLRYSLEGGRS
notes: numbers count on: human 220 kDa AnkB NM_020977.3; also called 32-aa fragment; source: E. coli BL21 (DE3), purified (Ni2+-NTA, size exclusion)
[2]
  binding result: binds

B4: AnkB 46-residue linker after the ANK repeats (aa 828–873, holds AI-c), as crystallised (domain or fragment, human, UniProt Q01484-2 828-873, looked up)
chain: TEKHKLNVPETMTEVLDVSDEEGDDTMTGDGGEYLRPEDLKELGDD
notes: Thr828 to Asp847 defined in the map; numbers count on: human 220 kDa AnkB NM_020977.3; Contiguous with m23 on one natural chain; also called folded back linker; source: E. coli BL21 (DE3), purified (Ni2+-NTA, size exclusion)
[4]
  binding result: binds

B5: AnkB_AI-c Asn834Lys (domain or fragment, human, UniProt Q01484-2 828-852, looked up)
chain: TEKHKLKVPETMTEVLDVSDEEGDD
notes: numbers count on: human 220 kDa AnkB NM_020977.3; source: E. coli BL21 (DE3), purified (Ni2+-NTA, size exclusion)
[5]
  binding result: binds

— article PMC5779224, “Autoinhibition of ankyrin-B/G membrane target bindings by intrinsically disordered segments from the tail regions” (eLife, 2017)
